US20150344570A1 (published 2015)

T1: FcγRIIa R (FcγRIIa, allotype with Arg at position 131), extracellular domain with C-terminal His tag (human, UniProt P12318 34-217)
T1 construct: extracellular domain; also called FcγRIIa R type; 2aR
T1 sequence (looked up): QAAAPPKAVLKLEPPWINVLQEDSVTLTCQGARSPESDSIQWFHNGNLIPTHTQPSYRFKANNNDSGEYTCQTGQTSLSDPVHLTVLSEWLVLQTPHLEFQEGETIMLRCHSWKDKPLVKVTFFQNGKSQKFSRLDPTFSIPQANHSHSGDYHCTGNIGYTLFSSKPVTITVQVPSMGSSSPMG


Target: T1, FcγRIIa R (FcγRIIa, allotype with Arg …)
Test: SPR (Biacore), antibody captured on antigen peptide chip, FcγR as analyte; relative binding
Protocol: Analysis of interaction between objective antibody and the FcγR was carried out using Biacore T100 (GE Healthcare). HBS-EP+ (GE Healthcare) was used as the running buffer, and the measurement temperature was set to 25° C. Chips produced by immobilizing the antigen peptide by the amine coupling method to a Series S Sencor Chip CM5 (GE Healthcare), or alternatively, chips produced by allowing preliminarily biotinylated antigen peptides to interact with and immobilize onto a Series S Sensor Chip SA (certified) (GE Healthcare) were used. Antibodies of interest were captured onto an antigen peptide-immobilized chip, and allowed to interact to each FcγR diluted with running buffer. To regenerate and repeatedly use the chip, the antibodies captured on the chip were washed off by reacting 10 mM glycine-HCl, pH 1.5.

| Ho/Con_2aR | Binder |
| --- | --- |
| 110 % of GpH7-B3/GpL16-k0 (=100) | GpH7-B3 variant S267_19Q/GpL16-k0 (antibody, human IgG1, kappa, also called Ho Ab) heavy: not shown light: DIVMTQSPLSLPVTPGEPASISCQASESLVHSNRNTYLHWYLQKPGQSPQLLIYKVSNRFSGVPDRFSGSGSGTDFTLKISRVEAEDVGVYYCSQNTHVPPTFGQGTKVEIERTVAAPSVFIFPPSDEQLKSGTASVVCLLNNFYPREAKVQWKVDNALQSGNSQESVTEQDSKDSTYSLSSTLTLSKADYEKHKVYACEVTHQGLSSPVTKSFNRGEC |
| 102 % of GpH7-B3/GpL16-k0 (=100) | GpH7-B3 variant S337_03V/GpL16-k0 (antibody, human IgG1, kappa, also called Ho Ab) heavy: not shown light: DIVMTQSPLSLPVTPGEPASISCQASESLVHSNRNTYLHWYLQKPGQSPQLLIYKVSNRFSGVPDRFSGSGSGTDFTLKISRVEAEDVGVYYCSQNTHVPPTFGQGTKVEIERTVAAPSVFIFPPSDEQLKSGTASVVCLLNNFYPREAKVQWKVDNALQSGNSQESVTEQDSKDSTYSLSSTLTLSKADYEKHKVYACEVTHQGLSSPVTKSFNRGEC |
| 98.3 % of GpH7-B3/GpL16-k0 (=100) | GpH7-B3 variant S337_04F/GpL16-k0 (antibody, human IgG1, kappa, also called Ho Ab) heavy: not shown light: DIVMTQSPLSLPVTPGEPASISCQASESLVHSNRNTYLHWYLQKPGQSPQLLIYKVSNRFSGVPDRFSGSGSGTDFTLKISRVEAEDVGVYYCSQNTHVPPTFGQGTKVEIERTVAAPSVFIFPPSDEQLKSGTASVVCLLNNFYPREAKVQWKVDNALQSGNSQESVTEQDSKDSTYSLSSTLTLSKADYEKHKVYACEVTHQGLSSPVTKSFNRGEC |
| 101 % of GpH7-B3/GpL16-k0 (=100) | GpH7-B3 variant S337_06M/GpL16-k0 (antibody, human IgG1, kappa, also called Ho Ab) heavy: not shown light: DIVMTQSPLSLPVTPGEPASISCQASESLVHSNRNTYLHWYLQKPGQSPQLLIYKVSNRFSGVPDRFSGSGSGTDFTLKISRVEAEDVGVYYCSQNTHVPPTFGQGTKVEIERTVAAPSVFIFPPSDEQLKSGTASVVCLLNNFYPREAKVQWKVDNALQSGNSQESVTEQDSKDSTYSLSSTLTLSKADYEKHKVYACEVTHQGLSSPVTKSFNRGEC |
| 99.4 % of GpH7-B3/GpL16-k0 (=100) | GpH7-B3 variant S337_08L/GpL16-k0 (antibody, human IgG1, kappa, also called Ho Ab) heavy: not shown light: DIVMTQSPLSLPVTPGEPASISCQASESLVHSNRNTYLHWYLQKPGQSPQLLIYKVSNRFSGVPDRFSGSGSGTDFTLKISRVEAEDVGVYYCSQNTHVPPTFGQGTKVEIERTVAAPSVFIFPPSDEQLKSGTASVVCLLNNFYPREAKVQWKVDNALQSGNSQESVTEQDSKDSTYSLSSTLTLSKADYEKHKVYACEVTHQGLSSPVTKSFNRGEC |
| 110 % of GpH7-B3/GpL16-k0 (=100) | GpH7-B3 variant S337_10E/GpL16-k0 (antibody, human IgG1, kappa, also called Ho Ab) heavy: not shown light: DIVMTQSPLSLPVTPGEPASISCQASESLVHSNRNTYLHWYLQKPGQSPQLLIYKVSNRFSGVPDRFSGSGSGTDFTLKISRVEAEDVGVYYCSQNTHVPPTFGQGTKVEIERTVAAPSVFIFPPSDEQLKSGTASVVCLLNNFYPREAKVQWKVDNALQSGNSQESVTEQDSKDSTYSLSSTLTLSKADYEKHKVYACEVTHQGLSSPVTKSFNRGEC |
| 101 % of GpH7-B3/GpL16-k0 (=100) | GpH7-B3 variant S298_08L/GpL16-k0 (antibody, human IgG1, kappa, also called Ho Ab) heavy: not shown light: DIVMTQSPLSLPVTPGEPASISCQASESLVHSNRNTYLHWYLQKPGQSPQLLIYKVSNRFSGVPDRFSGSGSGTDFTLKISRVEAEDVGVYYCSQNTHVPPTFGQGTKVEIERTVAAPSVFIFPPSDEQLKSGTASVVCLLNNFYPREAKVQWKVDNALQSGNSQESVTEQDSKDSTYSLSSTLTLSKADYEKHKVYACEVTHQGLSSPVTKSFNRGEC |
| 107 % of GpH7-B3/GpL16-k0 (=100) | GpH7-B3 variant S337_16H/GpL16-k0 (antibody, human IgG1, kappa, also called Ho Ab) heavy: not shown light: DIVMTQSPLSLPVTPGEPASISCQASESLVHSNRNTYLHWYLQKPGQSPQLLIYKVSNRFSGVPDRFSGSGSGTDFTLKISRVEAEDVGVYYCSQNTHVPPTFGQGTKVEIERTVAAPSVFIFPPSDEQLKSGTASVVCLLNNFYPREAKVQWKVDNALQSGNSQESVTEQDSKDSTYSLSSTLTLSKADYEKHKVYACEVTHQGLSSPVTKSFNRGEC |
| 114 % of GpH7-B3/GpL16-k0 (=100) | GpH7-B3 variant S337_09D/GpL16-k0 (antibody, human IgG1, kappa, also called Ho Ab) heavy: not shown light: DIVMTQSPLSLPVTPGEPASISCQASESLVHSNRNTYLHWYLQKPGQSPQLLIYKVSNRFSGVPDRFSGSGSGTDFTLKISRVEAEDVGVYYCSQNTHVPPTFGQGTKVEIERTVAAPSVFIFPPSDEQLKSGTASVVCLLNNFYPREAKVQWKVDNALQSGNSQESVTEQDSKDSTYSLSSTLTLSKADYEKHKVYACEVTHQGLSSPVTKSFNRGEC |
| 103 % of GpH7-B3/GpL16-k0 (=100) | GpH7-B3 variant S337_07I/GpL16-k0 (antibody, human IgG1, kappa, also called Ho Ab) heavy: not shown light: DIVMTQSPLSLPVTPGEPASISCQASESLVHSNRNTYLHWYLQKPGQSPQLLIYKVSNRFSGVPDRFSGSGSGTDFTLKISRVEAEDVGVYYCSQNTHVPPTFGQGTKVEIERTVAAPSVFIFPPSDEQLKSGTASVVCLLNNFYPREAKVQWKVDNALQSGNSQESVTEQDSKDSTYSLSSTLTLSKADYEKHKVYACEVTHQGLSSPVTKSFNRGEC |
| 100 % of GpH7-B3/GpL16-k0 (=100) | GpH7-B3 variant S337_15Y/GpL16-k0 (antibody, human IgG1, kappa, also called Ho Ab) heavy: not shown light: DIVMTQSPLSLPVTPGEPASISCQASESLVHSNRNTYLHWYLQKPGQSPQLLIYKVSNRFSGVPDRFSGSGSGTDFTLKISRVEAEDVGVYYCSQNTHVPPTFGQGTKVEIERTVAAPSVFIFPPSDEQLKSGTASVVCLLNNFYPREAKVQWKVDNALQSGNSQESVTEQDSKDSTYSLSSTLTLSKADYEKHKVYACEVTHQGLSSPVTKSFNRGEC |
| 105 % of GpH7-B3/GpL16-k0 (=100) | GpH7-B3 variant S337_20W/GpL16-k0 (antibody, human IgG1, kappa, also called Ho Ab) heavy: not shown light: DIVMTQSPLSLPVTPGEPASISCQASESLVHSNRNTYLHWYLQKPGQSPQLLIYKVSNRFSGVPDRFSGSGSGTDFTLKISRVEAEDVGVYYCSQNTHVPPTFGQGTKVEIERTVAAPSVFIFPPSDEQLKSGTASVVCLLNNFYPREAKVQWKVDNALQSGNSQESVTEQDSKDSTYSLSSTLTLSKADYEKHKVYACEVTHQGLSSPVTKSFNRGEC |
| 100 % of GpH7-B3/GpL16-k0 (=100) | GpH7-B3 variant S337_12R/GpL16-k0 (antibody, human IgG1, kappa, also called Ho Ab) heavy: not shown light: DIVMTQSPLSLPVTPGEPASISCQASESLVHSNRNTYLHWYLQKPGQSPQLLIYKVSNRFSGVPDRFSGSGSGTDFTLKISRVEAEDVGVYYCSQNTHVPPTFGQGTKVEIERTVAAPSVFIFPPSDEQLKSGTASVVCLLNNFYPREAKVQWKVDNALQSGNSQESVTEQDSKDSTYSLSSTLTLSKADYEKHKVYACEVTHQGLSSPVTKSFNRGEC |
| 97.7 % of GpH7-B3/GpL16-k0 (=100) | GpH7-B3 variant T335_01G/GpL16-k0 (antibody, human IgG1, kappa, also called Ho Ab) heavy: not shown light: DIVMTQSPLSLPVTPGEPASISCQASESLVHSNRNTYLHWYLQKPGQSPQLLIYKVSNRFSGVPDRFSGSGSGTDFTLKISRVEAEDVGVYYCSQNTHVPPTFGQGTKVEIERTVAAPSVFIFPPSDEQLKSGTASVVCLLNNFYPREAKVQWKVDNALQSGNSQESVTEQDSKDSTYSLSSTLTLSKADYEKHKVYACEVTHQGLSSPVTKSFNRGEC |
| 102 % of GpH7-B3/GpL16-k0 (=100) | GpH7-B3 variant S298_06M/GpL16-k0 (antibody, human IgG1, kappa, also called Ho Ab) heavy: not shown light: DIVMTQSPLSLPVTPGEPASISCQASESLVHSNRNTYLHWYLQKPGQSPQLLIYKVSNRFSGVPDRFSGSGSGTDFTLKISRVEAEDVGVYYCSQNTHVPPTFGQGTKVEIERTVAAPSVFIFPPSDEQLKSGTASVVCLLNNFYPREAKVQWKVDNALQSGNSQESVTEQDSKDSTYSLSSTLTLSKADYEKHKVYACEVTHQGLSSPVTKSFNRGEC |
| 103 % of GpH7-B3/GpL16-k0 (=100) | GpH7-B3 variant S337_18N/GpL16-k0 (antibody, human IgG1, kappa, also called Ho Ab) heavy: not shown light: DIVMTQSPLSLPVTPGEPASISCQASESLVHSNRNTYLHWYLQKPGQSPQLLIYKVSNRFSGVPDRFSGSGSGTDFTLKISRVEAEDVGVYYCSQNTHVPPTFGQGTKVEIERTVAAPSVFIFPPSDEQLKSGTASVVCLLNNFYPREAKVQWKVDNALQSGNSQESVTEQDSKDSTYSLSSTLTLSKADYEKHKVYACEVTHQGLSSPVTKSFNRGEC |
| 101 % of GpH7-B3/GpL16-k0 (=100) | GpH7-B3 variant S324_04F/GpL16-k0 (antibody, human IgG1, kappa, also called Ho Ab) heavy: not shown light: DIVMTQSPLSLPVTPGEPASISCQASESLVHSNRNTYLHWYLQKPGQSPQLLIYKVSNRFSGVPDRFSGSGSGTDFTLKISRVEAEDVGVYYCSQNTHVPPTFGQGTKVEIERTVAAPSVFIFPPSDEQLKSGTASVVCLLNNFYPREAKVQWKVDNALQSGNSQESVTEQDSKDSTYSLSSTLTLSKADYEKHKVYACEVTHQGLSSPVTKSFNRGEC |
| 102 % of GpH7-B3/GpL16-k0 (=100) | GpH7-B3 variant S337_19Q/GpL16-k0 (antibody, human IgG1, kappa, also called Ho Ab) heavy: not shown light: DIVMTQSPLSLPVTPGEPASISCQASESLVHSNRNTYLHWYLQKPGQSPQLLIYKVSNRFSGVPDRFSGSGSGTDFTLKISRVEAEDVGVYYCSQNTHVPPTFGQGTKVEIERTVAAPSVFIFPPSDEQLKSGTASVVCLLNNFYPREAKVQWKVDNALQSGNSQESVTEQDSKDSTYSLSSTLTLSKADYEKHKVYACEVTHQGLSSPVTKSFNRGEC |
| 118 % of GpH7-B3/GpL16-k0 (=100) | GpH7-B3 variant S324_06M/GpL16-k0 (antibody, human IgG1, kappa, also called Ho Ab) heavy: not shown light: DIVMTQSPLSLPVTPGEPASISCQASESLVHSNRNTYLHWYLQKPGQSPQLLIYKVSNRFSGVPDRFSGSGSGTDFTLKISRVEAEDVGVYYCSQNTHVPPTFGQGTKVEIERTVAAPSVFIFPPSDEQLKSGTASVVCLLNNFYPREAKVQWKVDNALQSGNSQESVTEQDSKDSTYSLSSTLTLSKADYEKHKVYACEVTHQGLSSPVTKSFNRGEC |
| 94.6 % of GpH7-B3/GpL16-k0 (=100) | GpH7-B3 variant S337_11K/GpL16-k0 (antibody, human IgG1, kappa, also called Ho Ab) heavy: not shown light: DIVMTQSPLSLPVTPGEPASISCQASESLVHSNRNTYLHWYLQKPGQSPQLLIYKVSNRFSGVPDRFSGSGSGTDFTLKISRVEAEDVGVYYCSQNTHVPPTFGQGTKVEIERTVAAPSVFIFPPSDEQLKSGTASVVCLLNNFYPREAKVQWKVDNALQSGNSQESVTEQDSKDSTYSLSSTLTLSKADYEKHKVYACEVTHQGLSSPVTKSFNRGEC |
